Measurements reported in the supplement of paper PMC10126150.
± gives the standard deviation of the averaged measurements.

Test system: ATP
Assay: switch fluorescence ratio, 500 uM ATP over buffer (Cy3 cluster intensity, sum of 5 cycles each) (fold (ratio)); higher = stronger signal-on switching upon ATP binding; sequences stand for … in TCGTCGGCAGCGTCAGATGTGTATAAGAGACAGTTTTTTTTTTTTTTTTTTTTTTTTT…TC
Conditions: aptamer strand: ATP DNA aptamer (quencher-CACCTGGGGGAGTATTGCGGAGGAAGG + anchor), 100 nM annealed; ATP concentration: 500 uM
In short: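 After annealing to 100 nM quencher-labelled ATP aptamer, Cy3-labelled switching-strand clusters on a modified Illumina MiSeq flow-cell were imaged in selection buffer. A second image followed after 15 min with 500 uM ATP at 22 °C, and five such buffer/ATP cycles were done, each separated by NaOH stripping and re-annealing. The fluorescence ratio, averaged per switch-domain sequence, is summed target-cycle over summed buffer-cycle Cy3 intensity per cluster, with clusters outside 100-1000 RFU excluded.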
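Also: ATP exposure 15 min at 22 °C before imaging.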

Row | Sequence | switch fluorescence ratio
1 | GACAGGTTGA | 0.993 ± 0.036
2 | GACAGTTAGC | 1.03 ± 0.013
3 | GACATAAGCA | 1.03 ± 0.017
4 | GACATAGGGT | 0.994 ± 0.025
5 | GACATAGTGG | 1.006 ± 0.0012
6 | GACATGAGGG | 1 ± 0.071
7 | GACATGGGGC | 1.04 ± 0.058
8 | GACATGGTTA | 1.02 ± 0.051
9 | GACATTATAT | 1.028 ± 0.0025
10 | GACATTATGC | 1.03 ± 0.014
11 | GACATTCACT | 1.108 ± 0.0088
12 | GACATTGTTG | 1.04 ± 0.055
13 | GACATTTTGG | 1.03 ± 0.042
14 | GACCAACAGT | 1.03 ± 0.021
15 | GACCATCTGT | 1.02 ± 0.024
16 | GACCCGGCTA | 1.04 ± 0.018
17 | GACCGAGGGG | 0.989 ± 0.026
18 | GACCTAGTGT | 1.03 ± 0.019
19 | GACCTGTTTG | 0.987 ± 0.017
20 | GACCTTTATA | 0.9914 ± 0.0062
21 | GACGAAAAGG | 1.75 ± 1.1
22 | GACGAAAGGC | 1.05 ± 0.02
23 | GACGAAATTG | 0.99836 ± 0.0003
24 | GACGAAGATC | 1.11 ± 0.016
25 | GACGAAGCGG | 2.41 ± 0.047

Row | Sequence | switch fluorescence ratio
26 | GACGAGGGAT | 1.1 ± 0.034
27 | GACGAGGGGG | 0.949 ± 0.11
28 | GACGATGTAA | 1.18 ± 0.018
29 | GACGCATGGT | 2.37 ± 0.15
30 | GACGCCTAGT | 1.036 ± 0.0021
31 | GACGCGGATG | 1.04 ± 0.02
32 | GACGCGGCGT | 1.02 ± 0.029
33 | GACGCGGGTC | 1.13 ± 0.026
34 | GACGCGTCTC | 1.033 ± 0.0057
35 | GACGCTCATG | 1.04 ± 0.033
36 | GACGCTTCG | 0.931 ± 0.017
37 | GACGGACAGG | 1.06 ± 0.024
38 | GACGGACAGT | 1.13 ± 0.076
39 | GACGGAGAGA | 1.23 ± 0.029
40 | GACGGGATCT | 1.042 ± 0.0092
41 | GACGGGATTG | 1.015 ± 0.006
42 | GACGGGCACA | 1.13 ± 0.028
43 | GACGGGGACC | 1.06 ± 0.063
44 | GACGGGGATG | 1.03 ± 0.012
45 | GACGGGGGTG | 1.01 ± 0.023
46 | GACGGGGTGG | 1.01 ± 0.059
47 | GACGGGTCTC | 1.001 ± 0.0098
48 | GACGGTAGAG | 1.03 ± 0.02
49 | GACGGTTTTT | 1.01 ± 0.024
50 | GACGTAGAGC | 1.08 ± 0.026

Row | Sequence | switch fluorescence ratio
51 | GACGTATAG | 0.994 ± 0.022
52 | GACGTATTTT | 0.9993 ± 0.0013
53 | GACGTCAGAT | 0.9767 ± 0.0018
54 | GACGTCCCAG | 0.966 ± 0.061
55 | GACGTCTGGG | 0.986 ± 0.013
56 | GACGTGCGAC | 1.29 ± 0.079
57 | GACGTTAATA | 1.41 ± 0.04
58 | GACGTTACCA | 1.61 ± 0.063
59 | GACGTTATGG | 1.04 ± 0.016
60 | GACGTTCTTG | 0.9862 ± 0.0027
61 | GACGTTTCTG | 1.01 ± 0.098
62 | GACGTTTTCC | 0.995 ± 0.097
63 | GACGTTTTTG | 0.996 ± 0.011
64 | GACTACGTTT | 1.02 ± 0.013
65 | GACTAGTGAA | 0.9906 ± 0.0079
66 | GACTAGTTGG | 0.983 ± 0.025
67 | GACTATAGAT | 1.05 ± 0.034
68 | GACTATGAAG | 0.99431 ± 0.00011
69 | GACTATTGGT | 0.969 ± 0.0098
70 | GACTCGAGGG | 0.99 ± 0.083
71 | GACTCGATCC | 1.08 ± 0.023
72 | GACTGCATCG | 1.03 ± 0.015
73 | GACTGCTATA | 1.44 ± 0.043
74 | GACTGGATGG | 0.98 ± 0.011
75 | GACTGGCACG | 1.03 ± 0.034

Row | Sequence | switch fluorescence ratio
76 | GACTGGGACT | 1.08 ± 0.05
77 | GACTGGGGGT | 0.998 ± 0.033
78 | GACTGGGTCG | 1.06 ± 0.012
79 | GACTGTAAGG | 0.997 ± 0.08
80 | GACTGTGATG | 0.9708 ± 0.0097
81 | GACTTAGGGA | 0.9949 ± 0.0013
82 | GACTTCCATT | 1.07 ± 0.016
83 | GACTTTATGG | 0.99 ± 0.035
84 | GACTTTGAAT | 1.014 ± 0.0089
85 | GACTTTTTGT | 0.994 ± 0.011
86 | GAGAAAAACC | 1.02 ± 0.041
87 | GAGAAAAGTG | 1.03 ± 0.086
88 | GAGAAACATT | 1.06 ± 0.029
89 | GAGAAAGCAG | 0.977 ± 0.025
90 | GAGAAAGGCT | 0.97 ± 0.019
91 | GAGAAAGGGT | 0.988 ± 0.019
92 | GAGAAATCTT | 1.01 ± 0.03
93 | GAGAAATGAT | 0.984 ± 0.0087
94 | GAGAAGCACG | 0.978 ± 0.055
95 | GAGAAGTTTG | 1.01 ± 0.018
96 | GAGAATAGAG | 0.989 ± 0.022
97 | GAGAATAGCG | 0.988 ± 0.028
98 | GAGAATCACG | 0.9961 ± 0.0024
99 | GAGAATCGGG | 0.9564 ± 0.0089
100 | GAGACAAGGA | 0.97095 ± 8.1e-05

Row | Sequence | switch fluorescence ratio
101 | GAGACATGTT | 0.99 ± 0.065
102 | GAGACCTTTT | 1.13 ± 0.17
103 | GAGAGATGGG | 0.988 ± 0.018
104 | GAGAGGAGGC | 1.07 ± 0.063
105 | GAGAGGCAAA | 1.01 ± 0.018
106 | GAGAGGGGAT | 1.03 ± 0.036
107 | GAGAGGGGCA | 0.999 ± 0.018
108 | GAGAGGTCGG | 1.012 ± 0.0016
109 | GAGAGGTTGT | 1 ± 0.024
110 | GAGAGTCTTC | 0.985 ± 0.0088
111 | GAGAGTGCGG | 1.04 ± 0.0067
112 | GAGAGTTGCG | 1.04 ± 0.027
113 | GAGAGTTGGG | 0.985 ± 0.022
114 | GAGATAAGCC | 1.03 ± 0.022
115 | GAGATAGGTA | 0.997 ± 0.024
116 | GAGATATGAG | 1.02 ± 0.024
117 | GAGATATTTA | 0.9905 ± 0.0036
118 | GAGATCGAGG | 1.03 ± 0.017
119 | GAGATCTGCT | 0.957 ± 0.015
120 | GAGATGGTGC | 0.99 ± 0.053
121 | GAGATGTTAG | 0.971 ± 0.017
122 | GAGATTGCGT | 1.01 ± 0.028
123 | GAGATTGGTT | 1.007 ± 0.0072
124 | GAGATTGTGA | 0.992 ± 0.039
125 | GAGATTTAGC | 1.03 ± 0.035

Row | Sequence | switch fluorescence ratio
126 | GAGATTTTGT | 0.998 ± 0.036
127 | GAGCAACGGA | 1.02 ± 0.031
128 | GAGCAGTCGG | 0.982 ± 0.036
129 | GAGCCTGGTT | 0.967 ± 0.035
130 | GAGCCTTTGT | 1.002 ± 0.006
131 | GAGCGAGGGG | 0.9836 ± 0.0074
132 | GAGCGCTTGG | 1.01 ± 0.037
133 | GAGCGGCGGG | 0.996 ± 0.026
134 | GAGCGGGATG | 0.986 ± 0.031
135 | GAGCGGTTAT | 1.33 ± 0.42
136 | GAGCGTGACG | 1 ± 0.045
137 | GAGCTACCCG | 1.04 ± 0.031
138 | GAGCTACGTA | 1.04 ± 0.026
139 | GAGCTAGAAA | 1.05 ± 0.065
140 | GAGCTATTCT | 1.08 ± 0.0029
141 | GAGCTCAAGT | 0.991 ± 0.062
142 | GAGCTCACGG | 1.02 ± 0.017
143 | GAGCTCCAGA | 1.0093 ± 0.00081
144 | GAGCTCTTTC | 1.01 ± 0.017
145 | GAGCTGAGCG | 0.996 ± 0.031
146 | GAGCTGTAAC | 1.02 ± 0.053
147 | GAGGAAAGGG | 0.989 ± 0.013
148 | GAGGACCCAG | 1.01 ± 0.027
149 | GAGGACGGTG | 1.03 ± 0.015
150 | GAGGACTAGG | 1.01 ± 0.013

Row | Sequence | switch fluorescence ratio
151 | GAGGACTATT | 0.999 ± 0.046
152 | GAGGAGCTAA | 1.006 ± 0.0034
153 | GAGGATGCTC | 1.01 ± 0.015
154 | GAGGATTGTG | 0.976 ± 0.012
155 | GAGGATTTAG | 0.964 ± 0.013
156 | GAGGATTTTG | 1.003 ± 0.0089
157 | GAGGCAAGTG | 1.12 ± 0.055
158 | GAGGCAATTT | 2.87 ± 0.68
159 | GAGGCAGGGG | 1.04 ± 0.072
160 | GAGGCAGTTG | 0.993 ± 0.076
161 | GAGGCATGGA | 0.9864 ± 0.0039
162 | GAGGCATGGG | 1.027 ± 0.0065
163 | GAGGCCCTGA | 0.971 ± 0.035
164 | GAGGCCGGAA | 1.07 ± 0.016
165 | GAGGCGCAGT | 0.9988 ± 0.0024
166 | GAGGCGGGGG | 0.988 ± 0.012
167 | GAGGCTAATT | 1.03 ± 0.057
168 | GAGGCTCGGA | 0.982 ± 0.029
169 | GAGGCTGTAT | 1 ± 0.011
170 | GAGGCTGTGC | 1.052 ± 0.0057
171 | GAGGGAATTT | 1.01 ± 0.021
172 | GAGGGACTAA | 0.9972 ± 0.0095
173 | GAGGGACTCT | 0.964 ± 0.013
174 | GAGGGAGCTT | 1.04 ± 0.026
175 | GAGGGAGGAG | 1 ± 0.029

Row | Sequence | switch fluorescence ratio
176 | GAGGGATGGG | 0.975 ± 0.017
177 | GAGGGATGTT | 1.01 ± 0.0092
178 | GAGGGATTCC | 1.06 ± 0.095
179 | GAGGGCACTT | 0.978 ± 0.043
180 | GAGGGCCTTA | 0.9885 ± 0.0025
181 | GAGGGCGGCG | 1.01 ± 0.11
182 | GAGGGCTAGT | 0.9713 ± 0.0027
183 | GAGGGGAAGC | 0.985 ± 0.046
184 | GAGGGGACAG | 0.979 ± 0.035
185 | GAGGGGAGAC | 1.02 ± 0.048
186 | GAGGGGCAGT | 0.975 ± 0.02
187 | GAGGGGCGAC | 0.974 ± 0.032
188 | GAGGGGGCCC | 1.01 ± 0.026
189 | GAGGGGGGCG | 1.04 ± 0.085
190 | GAGGGGGTGC | 1.04 ± 0.069
191 | GAGGGGTAGG | 0.977 ± 0.021
192 | GAGGGGTATT | 0.986 ± 0.016
193 | GAGGGGTCAG | 1 ± 0.039
194 | GAGGGGTCCG | 1 ± 0.11
195 | GAGGGGTGCA | 0.992 ± 0.015
196 | GAGGGGTGGG | 1.04 ± 0.076
197 | GAGGGGTTCG | 1.01 ± 0.022
198 | GAGGGTACTG | 1.032 ± 0.0053
199 | GAGGGTTAAG | 1.02 ± 0.029
200 | GAGGGTTCGG | 0.972 ± 0.031
